B1: Eukaryotic initiation factor 4F subunit p150 (Saccharomyces cerevisiae), P39935 (parent)
chain: MTDETAHPTQSASKQESAALKQTGDDQQESQQQRGYTNYNNGSNYTQKKPYNSNRPHQQRGGKFGPNRYNNRGNYNGGGSFRGGHMGANSSNVPWTGYYNNYPVYYQPQQMAAAGSAPANPIPVEEKSPVPTKIEITTKSGEHLDLKEQHKAKLQSQERSTVSPQPESKLKETSDSTSTSTPTPTPSTNDSKASSEENISEAEKTRRNFIEQVKLRKAALEKKRKEQLEGSSGNNNIPMKTTPENVEEKGSDKPEVTEKTKPAEEKSAEPEVKQETPAEEGEQGEKGQIKEESTPKVLTFAERLKLKKQQKEREEKTEGKENKEVPVQEETKSAIESAPVPPSEQVKEETEVAETEQSNIDESATTPAIPTKSDEAEAEVEAEAGDAGTKIGLEAEIETTTDETDDGTNTVSHILNVLKDATPIEDVFSFNYPEGIEGPDIKYKKEHVKYTYGPTFLLQFKDKLNVKADAEWVQSTASKIVIPPGMGRGNRSRDSGRFGNNSSRGHDFRNTSVRNMDDRANSRTSSKRRSKRMNDDRRSNRSYTSRRDRERGSYRNEEKREDDKPKEEVAPLVPSANRWVPKFKSKKTEKKLAPDGKTELLDKDEVERKMKSLLNKLTLEMFDAISSEILAIANISVWETNGETLKAVIEQIFLKACDEPHWSSMYAQLCGKVVKELNPDITDETNEGKTGPKLVLHYLVARCHAEFDKGWTDKLPTNEDGTPLEPEMMSEEYYAAASAKRRGLGLVRFIGFLYRLNLLTGKMMFECFRRLMKDLTDSPSEETLESVVELLNTVGEQFETDSFRTGQATLEGSQLLDSLFGILDNIIQTAKISSRIKFKLIDIKELRHDKNWNSDKKDNGPKTIQQIHEEEERQRQLKNNSRSNSRRTNNSSNRHSFRRDAPPASKDSFITTRTYSQRNSQRAPPPKEEPAAPTSTATNMFSALMGESDDEE
partner: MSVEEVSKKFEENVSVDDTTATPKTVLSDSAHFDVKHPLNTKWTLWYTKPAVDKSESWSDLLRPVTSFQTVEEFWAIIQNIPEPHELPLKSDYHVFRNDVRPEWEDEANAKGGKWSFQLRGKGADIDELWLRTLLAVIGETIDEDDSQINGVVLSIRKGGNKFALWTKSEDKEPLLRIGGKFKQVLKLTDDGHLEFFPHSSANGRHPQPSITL

Variants of: B1
Conditions: with if4e_yeast CDC33, P07260

effect of a mutation on the interaction	Variant
decreasing interaction strength	V213A;K214A;L215A;R216A;L457A;L458A
decreasing interaction	L457A;L458A

Reference: IntAct's records for PubMed 21139564
